Laboratory results as given in article PMC7906036 (Nature, 2020).
Read-outs that look alike come from different tables or passages of the source. Blank lines part the entries; values can stand above or below the molecule they belong to.

Experiments:
[1] = molecular target: human ferroportin (wild type) (human) (UniProt Q9NP59); experiment: fluorescence polarisation
[2] = molecular target: human ferroportin (wild type) (human) (UniProt Q9NP59); experiment: fluorescence polarisation; remark: listed apart in the source
[3] = molecular target: human ferroportin (wild type) (human) (UniProt Q9NP59); experiment: fluorescence polarisation; remark: listed apart in the source
[4] = molecular target: human ferroportin (wild type) (human, UniProt Q9NP59); experiment: SEC
[5] = molecular target: T1, Rhodamine green-hepcidin (Homo sapiens, not fully specified; rhodamine green at position 17); experiment: fluorescence polarisation
T1 chain: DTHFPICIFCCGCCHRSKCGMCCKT

Sequence of human ferroportin (wild type) (human) (Q9NP59 whole entry): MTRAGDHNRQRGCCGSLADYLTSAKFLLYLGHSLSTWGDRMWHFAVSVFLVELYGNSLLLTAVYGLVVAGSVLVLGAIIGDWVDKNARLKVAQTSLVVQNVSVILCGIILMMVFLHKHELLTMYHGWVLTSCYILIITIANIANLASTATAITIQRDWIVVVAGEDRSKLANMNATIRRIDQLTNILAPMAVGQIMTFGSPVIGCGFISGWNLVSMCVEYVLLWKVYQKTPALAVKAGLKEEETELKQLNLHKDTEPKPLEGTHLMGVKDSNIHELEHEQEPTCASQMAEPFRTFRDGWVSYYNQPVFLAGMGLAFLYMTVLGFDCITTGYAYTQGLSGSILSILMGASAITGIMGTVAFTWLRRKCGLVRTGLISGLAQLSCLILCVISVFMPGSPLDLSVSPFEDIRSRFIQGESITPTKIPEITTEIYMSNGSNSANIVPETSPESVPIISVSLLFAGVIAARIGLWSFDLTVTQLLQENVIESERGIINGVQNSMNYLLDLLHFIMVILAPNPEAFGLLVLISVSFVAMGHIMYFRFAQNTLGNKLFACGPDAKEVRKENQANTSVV
Sequence of human ferroportin (wild type) (Q9NP59 whole entry): as above

- Kd [1]: 7.7 nM
- Kd [2]: 210 nM
- Kd [3]: 2.5 nM
Molecule: Rhodamine green-hepcidin (peptide)

- binding result [4]: binds
- binding result [5]: no binding
B1: Fab45D8 (Fab, V domains shown)
VH: EVQLQESGPGLAKPSQTLSLTCSVTGSSITSDYWNWIRKFPGNKLEYMGYISYSGSTYYNPSLKSQISITRDTSKNHYYLQLNSVTTEDTATYYCARQGLRNWYFDVWGTGTTVTVSS
VL: DIVLTQSPASLPVSLGQRATISCRASKSVSASAYSYMHWYQQKPGQPPKPLIYLASNLESGVPARFSGSGSGTDFTLNIHPVEEEDAATYYCQHNRELPYTFGGGTKLEIK
